# B1: CYP 2C9 (Homo sapiens) (protein)
# chain: MDSLVVLVLCLSCLLLLSLWRQSSGRGKLPPGPTPLPVIGNILQIGIKDISKSLTNLSKVYGPVFTLYFGLKPIVVLHGYEAVKEALIDLGEEFSGRGIFPLAERANRGFGIVFSNGKKWKEIRRFSLMTLRNFGMGKRSIEDRVQEEARCLVEELRKTKASPCDPTFILGCAPCNVICSIIFHKRFDYKDQQFLNLMEKLNENIKILSSPWIQICNNFSPIIDYFPGTHNKLLKNVAFMKSYILEKVKEHQESMDMNNPQDFIDCFLMKMEKEKHNQPSEFTIESLENTAVDLFGAGTETTSTTLRYALLLLLKHPEVTAKVQEEIERVIGRNRSPCMQDRSHMPYTDAVVHEVQRYIDLLPTSLPHAVTCDIKFRNYLIPKGTTILISLTSVLHDNKEFPNPEMFDPHHFLDEGGNFKKSKYFMPFSAGKRICVGEALAGMELFLFLTSILQNFNLKSLVDPKNLDTTPVVNGFASVPPFYQLCFIPV
# Key:
# CYP3A4 = CYP3A4 (Homo sapiens, UniProt P08684); test: Rate of hydroxylation of BOM-09B by CYP 3A4; assay type: biochemical
# Protocol: The racemic compound mixture (designated BOM-09B) was tested for activity with cytochrome P450 isozymes. […] The CYP 3A4 assay was performed in a 96-well plate at 37° C. in a volume of 100 μL/well. BOM-09B was diluted from a stock solution of 1 mM in acetonitrile to a 4×concentration of 80 μM in 100 mM K+ phosphate buffer of which 25 μl was added to the appropriate wells. […] The cytochrome P450 isozyme CYP3A4 was diluted to give a 2 pmol enzyme per well. Enzymic conversion of the substrate to products was allowed to proceed for 1 hour with fluorescence reads taken every 4 minutes on a fluorescence microtiter plate reader. The solution was illuminated with an 395/25 nm excitation filter and fluorescence emission was detected through a 460/40 nm the emission filter.
# [1] = substrate: O=C(O)c1ccccc1-c1c2ccc(=O)cc-2oc2cc(OCOCc3ccccc3)ccc12; test: Kinetic properties of substrate BOMF with CYP 2C9 (Tris-HCl buffer); assay type: biochemical, human; details: other: 200 mM Tris-HCl buffer, pH 7.5
# [2] = substrate: COCOc1ccc2cc(C#N)c(=O)oc2c1; test: Kinetic properties of fluorogenic substrates with CYP 2C9; assay type: biochemical, human; details: other: — = too low to quantify
# [3] = substrate: COc1ccc(COc2ccc3nc4ccc(=O)cc-4oc3c2)cc1; test: as above; assay type: biochemical, human; details: other: — = too low to quantify
# [4] = substrate: CCCCCCCCOCOc1ccc2nc3ccc(=O)cc-3oc2c1; test: as above; assay type: biochemical, human; details: other: — = too low to quantify
# [5] = substrate: N#Cc1cc2ccc(OCOCc3ccccc3)cc2oc1=O; test: as above; assay type: biochemical, human; details: other: — = too low to quantify
# [6] = substrate: COc1ccc2cc(C#N)c(=O)oc2c1; test: as above; assay type: biochemical, human; details: other: — = too low to quantify
# [7] = substrate: COc1ccc(COc2ccc3c(C(F)(F)F)cc(=O)oc3c2)cc1; test: as above; assay type: biochemical, human; details: other: — = too low to quantify
# Sequence of CYP3A4 (P08684 whole entry): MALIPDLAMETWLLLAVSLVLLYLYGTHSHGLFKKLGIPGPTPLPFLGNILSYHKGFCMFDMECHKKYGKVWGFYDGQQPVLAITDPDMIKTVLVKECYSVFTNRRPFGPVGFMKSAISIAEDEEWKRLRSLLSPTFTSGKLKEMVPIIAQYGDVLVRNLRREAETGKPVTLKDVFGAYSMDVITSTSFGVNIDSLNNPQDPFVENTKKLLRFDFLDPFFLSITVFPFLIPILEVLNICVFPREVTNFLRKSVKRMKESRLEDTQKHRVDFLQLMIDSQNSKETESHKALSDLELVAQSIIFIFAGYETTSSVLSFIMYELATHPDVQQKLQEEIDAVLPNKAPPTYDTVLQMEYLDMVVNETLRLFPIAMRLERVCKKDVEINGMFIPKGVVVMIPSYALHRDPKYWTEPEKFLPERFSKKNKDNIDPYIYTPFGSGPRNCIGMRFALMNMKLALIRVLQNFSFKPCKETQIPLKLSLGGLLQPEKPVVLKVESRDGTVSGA
molecule,measurement,setting,value
NC1CCCCC1NC(=O)c1cc2ccc(OCOCc3ccccc3)cc2oc1=O (racemic) [BOM-09B],conversion rate,"CYP3A4; 20 μM substrate, 37° C., 2 pmol enzyme per well",0.75 pmol substrate/pmol enzyme·min
same,rate of conversion compared with BOMCC,CYP3A4; identical conditions,half that of BOMCC
B1,Km,[1],4.5 µM
same,kcat,[1],0.075 s⁻¹
same,kcat/Km,[1],16666 M⁻¹ s⁻¹
same,Km,[2],20 µM
same,kcat/Km,[2],167 M⁻¹ s⁻¹
same,Km,[3],0.4 µM
same,kcat/Km,[3],952 M⁻¹ s⁻¹
same,Km,[4],2.6 µM
same,kcat,[4],0.0067 s⁻¹
same,kcat/Km,[4],2564 M⁻¹ s⁻¹
same,Km,[5],43.0 µM
same,kcat,[5],0.035 s⁻¹
same,kcat/Km,[5],814 M⁻¹ s⁻¹
same,Km,[6],70.9 µM
same,kcat,[6],0.00667 s⁻¹
same,kcat/Km,[6],85 M⁻¹ s⁻¹
same,Km,[7],7.7 µM
same,kcat,[7],0.00483 s⁻¹
same,kcat/Km,[7],628 M⁻¹ s⁻¹
